According to patent publication US11168306B2, “Phage wrapping” (priority 2014, dated 2021):
Entries after “also recorded” stand apart in the source; their conditions may differ.

What follows are molecules tested against T1, PSMA on LNCaP cells (Homo sapiens, UniProt Q04609) (assay: Cell-based phage ELISA, recognition of cell surface PSMA). Settings: PEGylated ligands on phage wrapped with K14-Cys.
T1 construct: specific recognition of PSMA on the surface of LNCaP cells; endogenous in cells; host or cells: LNCaP (also LNCaP CSS); glutaraldehyde-fixed on the plate
T1 sequence (Q04609 whole entry): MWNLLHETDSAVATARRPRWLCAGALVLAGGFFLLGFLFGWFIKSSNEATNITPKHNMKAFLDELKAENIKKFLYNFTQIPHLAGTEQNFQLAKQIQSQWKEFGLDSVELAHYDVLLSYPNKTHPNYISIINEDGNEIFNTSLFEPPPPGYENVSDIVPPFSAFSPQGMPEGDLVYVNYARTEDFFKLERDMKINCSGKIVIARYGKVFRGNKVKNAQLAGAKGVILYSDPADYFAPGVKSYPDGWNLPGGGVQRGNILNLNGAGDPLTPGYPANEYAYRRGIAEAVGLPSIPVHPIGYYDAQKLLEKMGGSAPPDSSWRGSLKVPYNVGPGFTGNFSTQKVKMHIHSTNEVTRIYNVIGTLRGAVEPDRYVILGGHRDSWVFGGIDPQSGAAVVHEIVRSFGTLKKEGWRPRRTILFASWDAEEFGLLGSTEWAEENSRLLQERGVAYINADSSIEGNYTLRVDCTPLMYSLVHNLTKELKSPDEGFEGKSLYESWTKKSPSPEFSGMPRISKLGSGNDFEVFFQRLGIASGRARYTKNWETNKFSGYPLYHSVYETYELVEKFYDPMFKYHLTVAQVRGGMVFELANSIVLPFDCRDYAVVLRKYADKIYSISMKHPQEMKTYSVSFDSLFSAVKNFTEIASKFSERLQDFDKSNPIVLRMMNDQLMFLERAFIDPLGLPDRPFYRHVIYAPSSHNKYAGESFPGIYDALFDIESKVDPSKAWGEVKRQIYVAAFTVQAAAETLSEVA
Protocol: The cell-based ELISA was performed as previously described by Watanabe et. al. with several modifications. See e.g., Watanabe, K.; et al., Clin. Biochem. 2001, 34, 291-295. Cells were detached with Trypsin-EDTA, resuspended in PBS, and then collected by centrifuging at 1200 rpm for 5 min. The cells were further washed with PBS and then concentrated as in the previous step. The concentration of the cells was adjusted to 4.5×10^6 cells/mL in PBS using a hemocytometer, and 100 μL was aliquoted to specific wells of a 96-well microtiter (Nunc Maxisorp). Next, 50 μL of 0.15% of glutaraldehyde in PBS was added to the wells at 4° C., and the solution was gently mixed by pipetting. The ELISA plate was then centrifuged at 1200 rpm for 10 min at 4° C., followed by overnight incubation at 4° C. The cell solution was gently removed, and the wells were blocked with 200 μL/well of blocking buffer containing 100 mM glycine, 1% gelatin and 0.1% w/v BSA (bovine serum albumin) in PBS. The plate was incubated overnight (˜20-22 h) at room temperature.
Separately, phage wrapped with PEG and PEGylated ligands were prepared. Phage (10 nM in 100 μL) and 1 μL of K14-alkyne (525 μM in water) were thoroughly mixed by pipetting ˜25 times. For phage wrapped with PEGylated ligands, phage were mixed with 0.75 μL of K14-Cys (525 μM in water). For mixed wrapping on phage surface, 0.5 μL of K14-alkyne was pre-mixed with 0.75 μL of K14-Cys, and then mixed with 100 μL of 10 nM phage. The solution was shaken at room temperature for 15 min on an orbital shaker. Next, 2 μL of PEGylated ligand (625 μM in water) was added to the appropriate wells. For the dual ligand combinations, the PEGylated ligands were pre-mixed in the desired ratio (2:1 for example), and then 2 μL of the mixture was added to the appropriate wells. The solutions were gently mixed by pipetting, and incubated overnight at 4° C.
Next, the click reaction was performed, as previously described, but with the following modifications.^1,2 Triethylammonium acetate was added to a final concentration of 50 mM, followed by the addition of 1.5 μL of 1 mM azide-functionalized PEG. The solutions were mixed by pipetting. Next, ascorbic acid was added to a final concentration of 1 mM and the solutions were mixed by gently pipetting. Next, copper sulfate was added to a final concentration of 1.5 mM, followed by pipetting to mix the solutions. Water was added to the other wells to maintain a consistent phage concentration. The plate was incubated at room temperature for 30 min.
The wells on the ELISA plate were then incubated with the phage samples. The blocking buffer was removed and the wells were gently washed two times with PBS. Next, the phage solution was added to the respective wells and incubated for 45 min. The phage solution was removed, and the wells were washed three times with 300 μL/well of wash buffer PT (0.05% TWEEN-20 in PBS), once with PBS, and then incubated with horseradish-peroxidase-conjugated anti-M13 antibody (100 μL/well, 1:5000 dilution in PBS) for 40 min. The wells were washed three times with PT and once with PBS. The plate was then developed by incubating with HRP substrate solution (100 μL/well; 1 mg/mL o-phenylenediamine dihydrochloride and 0.02% w/v H2O2) in citric acid buffer (50 mM citric acid, 50 mM Na2HPO4, pH 5.0). The HRP activity was measured spectrophotometrically at 450 nm using a microtiter plate reader (Bio-Tek). The absorbance at 630 nm was subtracted from the absorbance at 450 nm to eliminate background.

Molecule | relative binding affinity for cell surface PSMA on LNCaP cells
P100NSP-2: PEG100, non-specific attachment to ligand 2; bioconjugated to phage wrapped with K14-Cys (conjugate) peptide 1: SECVEVFQNSCDW peptide 2: KKKKKKKKKKKKKKC AEGDDPAKAAFNSLQASATEYIGYAWAMVVVIVGATIGIKLFKKFTSKAS | higher affinity for LNCaP cells compared to P100NSP-1
P100SP-P4-2: PEG100, specific attachment, PEG4 linker, ligand 2 (conjugate) peptide 1: SECVEVFQNSCDW peptide 2: KKKKKKKKKKKKKKC AEGDDPAKAAFNSLQASATEYIGYAWAMVVVIVGATIGIKLFKKFTSKAS | most effective PEGylated ligand for recognition of PSMA on the cell surface
P100NSP-P4-2+P100NSP-P4-1: dual PEGylated ligand combination with PEG4 linker, non-specific attachment, on phage (conjugate) peptide 1: SECVEVFQNSCDW peptide 2: CALCEFLG peptide 3: KKKKKKKKKKKKKKC AEGDDPAKAAFNSLQASATEYIGYAWAMVVVIVGATIGIKLFKKFTSKAS | drop in affinity; also recorded: affinity equivalent to P100NSP-P4-2
P100SP-P4-2+P100SP-P4-1: dual PEGylated ligand combination with PEG4 linker, specific attachment, 2:1 ratio, on phage (conjugate) peptide 1: SECVEVFQNSCDW peptide 2: CALCEFLG peptide 3: KKKKKKKKKKKKKKC AEGDDPAKAAFNSLQASATEYIGYAWAMVVVIVGATIGIKLFKKFTSKAS | significant increase in binding affinity
2:1 mixture of P100NSP-2 and P100NSP-1: dual PEGylated ligand combination wrapped on phage (conjugate) peptide 1: SECVEVFQNSCDW peptide 2: CALCEFLG peptide 3: KKKKKKKKKKKKKKC AEGDDPAKAAFNSLQASATEYIGYAWAMVVVIVGATIGIKLFKKFTSKAS | maximize the recognition of PSMA on LNCaP cells
P100SP-2: PEG100, specific attachment to ligand 2 (conjugate) peptide 1: SECVEVFQNSCDW peptide 2: KKKKKKKKKKKKKKC AEGDDPAKAAFNSLQASATEYIGYAWAMVVVIVGATIGIKLFKKFTSKAS | higher binding affinity for cell surface PSMA than P100NSP-2

Same assay, conditions: PEGylated ligands on phage wrapped with K14-Cys; listed as P100NSP-2+P100NSP-1

Molecule | relative binding affinity for cell surface PSMA on LNCaP cells
2:1 mixture of P100NSP-2 and P100NSP-1: dual PEGylated ligand combination wrapped on phage (conjugate) peptide 1: SECVEVFQNSCDW peptide 2: CALCEFLG peptide 3: KKKKKKKKKKKKKKC AEGDDPAKAAFNSLQASATEYIGYAWAMVVVIVGATIGIKLFKKFTSKAS | modest improvement
